According to publication PMC8028696 (Journal of Molecular Biology, 2021):

B1: IgG 15046 (antibody, V domains shown)
VH: EVQLVESGGGLVQPGGSLRLSCAASGFDFGSYAMHWVRQAPGKGLEWVAGIYASGGYTDYADSVKGRFTISADTSKNTAYLQMNSLRAEDTAVYYCARGWSYYWGFDYWGQGTLVTVSS
VL: DIQMTQSPSSLSASVGDRVTITCRASQSVSSAVAWYQQKPGKAPKLLIYSASSLYSGVPSRFSGSRSGTDFTLTISSLQPEDFATYYCQQYDYGLFTFGQGTKVEIK
B2: IgG 15036 (antibody, V domains shown)
VH: EVQLVESGGGLVQPGGSLRLSCAASGFDFTAYDIHWVRQAPGKGLEWVAGISASGGYTAYADSVKGRFTISADTSKNTAYLQMNSLRAEDTAVYYCARDGFHSYALDYWGQGTLVTVSS
VL: DIQMTQSPSSLSASVGDRVTITCRASQSVSSAVAWYQQKPGKAPKLLIYSASSLYSGVPSRFSGSRSGTDFTLTISSLQPEDFATYYCQQWYSLFTFGQGTKVEIK

Target: SARS-CoV-2 RBD (SARS-CoV-2 (P0DTC2 reference)); strain …, UniProt P0DTC2, biotin (site-specific, BirA, on the AviTag))
Experiment: BLI

Binder | Kd
B1 | 3.7 ± 0.1 nM
B2 | 2.2 ± 0.2 nM
